{
  "source": "patent US8309097B2",
  "about": "“C-type lectin binding molecules, identification and uses thereof” (Vereniging voor Christelijk Wetenschappelijk Onderwijs, priority 2002, dated 2012)",
  "molecules": {"B1": {"name": "CEACAM1: native CEACAM1 (CD66) from PMN (protein, UniProt P13688 35-526, looked up)", "Cell adhesion molecule CEACAM1": "QLTTESMPFNVAEGKEVLLLVHNLPQQLFGYSWYKGERVDGNRQIVGYAIGTQQATPGPANSGRETIYPNASLLIQNVTQNDTGFYTLQVIKSDLVNEEATGQFHVYPELPKPSISSNNSNPVEDKDAVAFTCEPETQDTTYLWWINNQSLPVSPRLQLSNGNRTLTLLSVTRNDTGPYECEIQNPVSANRSDPVTLNVTYGPDTPTISPSDTYYRPGANLSLSCYAASNPPAQYSWLINGTFQQSTQELFIPNITVNNSGSYTCHANNSVTGCNRTTVKTIIVTELSPVVAKPQIKASKTTVTGDKDSVNLTCSTNDTGISIRWFFKNQSLPSSERMKLSQGNTTLSINPVKREDAGTYWCEVFNPISKNQSDPIMLNVNYNALPQENGLSPGAIAGIVIGVVALVALIAVALACFLHFGKTGRASDQRDLTEHKPSVSNHTQDHSNDPPNKMNEVTYSTLNFEAQQPTQPTSASPSLTATEIIYSEVKKQ"}, "B2": {"name": "CD66e: tumor antigen CEA from SW948 tumor cell lysate (protein, UniProt P06731 35-685, looked up)", "Cell adhesion molecule CEACAM5": "KLTIESTPFNVAEGKEVLLLVHNLPQHLFGYSWYKGERVDGNRQIIGYVIGTQQATPGPAYSGREIIYPNASLLIQNIIQNDTGFYTLHVIKSDLVNEEATGQFRVYPELPKPSISSNNSKPVEDKDAVAFTCEPETQDATYLWWVNNQSLPVSPRLQLSNGNRTLTLFNVTRNDTASYKCETQNPVSARRSDSVILNVLYGPDAPTISPLNTSYRSGENLNLSCHAASNPPAQYSWFVNGTFQQSTQELFIPNITVNNSGSYTCQAHNSDTGLNRTTVTTITVYAEPPKPFITSNNSNPVEDEDAVALTCEPEIQNTTYLWWVNNQSLPVSPRLQLSNDNRTLTLLSVTRNDVGPYECGIQNELSVDHSDPVILNVLYGPDDPTISPSYTYYRPGVNLSLSCHAASNPPAQYSWLIDGNIQQHTQELFISNITEKNSGLYTCQANNSASGHSRTTVKTITVSAELPKPSISSNNSKPVEDKDAVAFTCEPEAQNTTYLWWVNGQSLPVSPRLQLSNGNRTLTLFNVTRNDARAYVCGIQNSVSANRSDPVTLDVLYGPDTPIISPPDSSYLSGANLNLSCHSASNPSPQYSWRINGIPQQHTQVLFIAKITPNNNGTYACFVSNLATGRNNSIVKSITVSASGTSPGLSA"}, "B3": {"name": "RNAseB: control inhibitor in DC adhesion assay (protein, UniProt P61823 27-150, looked up)", "Ribonuclease pancreatic": "KETAAAKFERQHMDSSTSAASSSNYCNQMMKSRNLTKDRCKPVNTFVHESLADVQAVCSQKNVACKNGQTNCYQSYSTMSITDCRETGSSKYPNCAYKTTQANKHIIVACEGNPYVPVHFDASV", "modifications": "glycoform B"}, "B4": {"name": "ICAM-3: cellular ligand of DC-SIGN (protein)", "chain": "QEFLLRVEPQNPVLSAGGSLFVNCSTDCPSSEKIALETSLSKELVASGMGWAAFNLSNVTGNSRILCSVYCNGSQITGSSNITVYRLPERVELAPLPPWQPVGQNFTLRCQVEDGSPRTSLTVVLLRWEEELSRQPAVEEPAEVTATVLASRDDHGAPFSCRTELDMQPQGLGLFVNTSAPRQLRTFVLPVTPPRLVAPRFLEVETSWPVDCTLDGLFPASEAQVYLALGDQMLNATVMNHGDTLTATATATARADQEGAREIVCNVTLGGERREARENLTVFSFLGPIVNLSEPTAHEGSTVTVSCMAGARVQVTLDGVPAAAPGQPAQLQLNATESDDGRSFFCSATLEVDGEFLHRNSSVQLRVLYGPKIDRATCPQHLKWKDKTRHVLQCQARGNPYPELRCLKEGSSREVPVGIPFFVNVTHNGTYQCQASSSRGKYTLVVVMDIEAGSSH"}},
  "key": {"[1]": {"target": "T1, DC-SIGN expressed by K562 transfectants (Homo sapiens, UniProt Q9NNX6)", "T1 construct": "expressed in transfected cells; host or cells: K562", "T1 sequence (Q9NNX6 1-404)": "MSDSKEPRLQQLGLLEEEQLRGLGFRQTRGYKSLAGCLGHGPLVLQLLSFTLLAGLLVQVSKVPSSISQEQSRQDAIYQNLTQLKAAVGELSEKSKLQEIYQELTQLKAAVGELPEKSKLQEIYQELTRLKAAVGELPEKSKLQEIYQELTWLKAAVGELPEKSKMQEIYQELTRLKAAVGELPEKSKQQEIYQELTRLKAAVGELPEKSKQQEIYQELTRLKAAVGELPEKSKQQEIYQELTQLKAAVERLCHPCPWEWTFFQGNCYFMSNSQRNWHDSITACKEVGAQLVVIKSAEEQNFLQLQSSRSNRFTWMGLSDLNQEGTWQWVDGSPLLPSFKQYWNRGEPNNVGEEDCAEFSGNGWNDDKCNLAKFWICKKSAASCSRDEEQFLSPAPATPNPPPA", "assay_type": "cell-based"}, "[2]": {"target": "T2, DC-SIGN on immature monocyte derived DC (Homo sapiens, UniProt Q9NNX6)", "T2 construct": "Immature DC were cultured from monocytes in the presence of IL-4 and GM-CSF; endogenous in cells; host or cells: immature monocyte-derived dendritic cells", "T2 sequence (Q9NNX6 1-404)": "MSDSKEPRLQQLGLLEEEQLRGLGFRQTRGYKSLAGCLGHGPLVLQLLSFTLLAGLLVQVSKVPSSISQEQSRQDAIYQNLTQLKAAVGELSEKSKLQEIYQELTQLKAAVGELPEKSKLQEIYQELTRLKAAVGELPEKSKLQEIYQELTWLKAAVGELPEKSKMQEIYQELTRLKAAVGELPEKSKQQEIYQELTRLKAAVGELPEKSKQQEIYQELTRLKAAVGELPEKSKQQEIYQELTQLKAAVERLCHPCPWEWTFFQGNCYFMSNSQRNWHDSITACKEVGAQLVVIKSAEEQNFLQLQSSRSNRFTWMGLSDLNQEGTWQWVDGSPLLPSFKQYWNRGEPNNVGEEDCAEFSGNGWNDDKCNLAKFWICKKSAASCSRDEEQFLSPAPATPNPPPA", "experiment": "Fluorescent bead adhesion assay, immature DC", "assay_type": "cell-based"}, "DC-SIGN-Fc [3]": {"target": "T3, DC-SIGN-Fc (Homo sapiens, UniProt Q9NNX6)", "T3 sequence (Q9NNX6 64-404)": "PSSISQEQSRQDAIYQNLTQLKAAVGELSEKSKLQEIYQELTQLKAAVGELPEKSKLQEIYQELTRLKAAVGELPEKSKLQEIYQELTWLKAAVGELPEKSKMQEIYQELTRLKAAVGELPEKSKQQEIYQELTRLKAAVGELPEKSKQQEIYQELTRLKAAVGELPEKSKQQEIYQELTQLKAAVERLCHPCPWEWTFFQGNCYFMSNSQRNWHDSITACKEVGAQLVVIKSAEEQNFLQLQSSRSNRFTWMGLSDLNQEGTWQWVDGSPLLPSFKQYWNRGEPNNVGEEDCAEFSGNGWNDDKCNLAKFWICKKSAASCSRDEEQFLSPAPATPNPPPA", "experiment": "Soluble DC-SIGN-Fc adhesion assay (Fc ELISA)", "conditions": "ELISA, ligand coated"}, "DC-SIGN-Fc [4]": {"target": "T3, DC-SIGN-Fc", "experiment": "Immunoprecipitation and detection with DC-SIGN-Fc", "assay_type": "binding", "from_the_text": "FIG. 59. […] Cell-surface proteins are biotinylated and PMNs are lysed. Lane 1. negative control using ICAM-3 Fc to capture by IP proteins. Detection is peroxidase-labeled streptavidin. Lane 2. DC-SIGN-Fc is used to capture ligands biotinylated ligands from lysate; two protein bands are visible, the upper band consists of CD11b and CD66a, whereas the lower consists of CD18. Lane 3. Negative control; no bands are immune precipitated with anti-DC-SIGN antibodies. Lane 4, IP with antibodies against CD66acd; a faint band is visible containing CD66a. Lane 5, IP of CD11b; two bands are visible; the upper band is […] and the lower band is CD18m, which is co-immuneprecipitated with […]. Lane 6. IP with DC-SIGN ligands and detection with anti-CD66acd; CD66a is captured by DC-SIGN Fc. Lane 7. IP with DC-SIGN ligands and detection with anti-CD11b; CD11b is captured by DC-SIGN Fc. Lane 8. Negative control, IP with anti-DC-SIGN antibodies and detection with DC-SIGN-Fc. Lane 9. IP with anti-CD66acd and detection with DC-SIGN Fc; CD66a is bound by DC-SIGN on blot. Lane 10. IP with anti-CD11a and detection with DC-SIGN Fc; CD11a is bound by DC-SIGN on blot.\nImmunoprecipitation. […]"}},
  "data": [
    {"molecule": "B1", "values": [
      {"measurement": "binding of ligand-coated beads to K562 DC-SIGN transfectants", "setting": "[1]", "result": "binds"},
      {"measurement": "binding of ligand-coated beads to immature DC", "setting": "[2]", "result": "binds"},
      {"measurement": "binding of DC-SIGN-Fc to coated ligand", "setting": "DC-SIGN-Fc [3]", "result": "is a ligand of DC-SIGN"}
    ]},
    {"molecule": "B2", "values": [
      {"measurement": "binding of DC-SIGN-Fc to immunoprecipitated ligand", "setting": "DC-SIGN-Fc [4]", "result": "binds"},
      {"measurement": "binding of DC-SIGN-Fc after α-1,3,4 Fucosidase treatment of the ligand", "setting": "DC-SIGN-Fc [4]; immunoprecipitation", "result": "abrogated"},
      {"measurement": "binding of DC-SIGN-Fc to coated ligand", "setting": "DC-SIGN-Fc [3]", "result": "bound"}
    ]},
    {"molecule": "B3", "values": [
      {"measurement": "inhibition of HIV-1 gp120 adhesion to DC", "setting": "[2]", "result": "does not block"},
      {"measurement": "inhibition of ICAM-3 adhesion to DC", "setting": "[2]; inhibitors 20 μg/ml", "result": "does not block"}
    ]},
    {"molecule": "B4", "values": [
      {"measurement": "binding of DC-SIGN-Fc to coated ligand", "setting": "DC-SIGN-Fc [3]", "result": "does not recognize"}
    ]}
  ]
}
